Numbering of substitutions follows the chain as printed.
T1: CD5 on human T cells (autologous and allogeneic Pan-T cells) and on the T-ALL cell line CCRF-CEM (human, UniProt P06127 25-495)
T1 sequence (looked up): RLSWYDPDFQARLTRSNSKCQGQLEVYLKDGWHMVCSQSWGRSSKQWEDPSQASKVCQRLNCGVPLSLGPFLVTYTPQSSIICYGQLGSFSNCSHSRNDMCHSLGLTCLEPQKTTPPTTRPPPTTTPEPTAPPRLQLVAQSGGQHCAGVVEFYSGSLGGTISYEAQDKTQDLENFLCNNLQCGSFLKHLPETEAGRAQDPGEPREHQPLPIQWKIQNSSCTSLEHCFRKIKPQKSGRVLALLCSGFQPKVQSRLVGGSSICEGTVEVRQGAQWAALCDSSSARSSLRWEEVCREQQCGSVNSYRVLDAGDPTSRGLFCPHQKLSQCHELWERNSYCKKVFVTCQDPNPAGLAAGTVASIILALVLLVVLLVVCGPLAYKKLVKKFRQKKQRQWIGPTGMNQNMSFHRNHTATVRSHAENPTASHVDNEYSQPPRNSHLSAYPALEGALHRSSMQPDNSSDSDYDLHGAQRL

T2: Human CD5 Protein, HisTag (AcroBiosystems, Cat #CD5-H52H5) (human, UniProt P06127 25-372)
T2 construct: Bought staining reagent, detected with His-APC antibody; also called CD5 antigen; APC labeled CD5 antigen; not shown: His tag
T2 sequence (looked up): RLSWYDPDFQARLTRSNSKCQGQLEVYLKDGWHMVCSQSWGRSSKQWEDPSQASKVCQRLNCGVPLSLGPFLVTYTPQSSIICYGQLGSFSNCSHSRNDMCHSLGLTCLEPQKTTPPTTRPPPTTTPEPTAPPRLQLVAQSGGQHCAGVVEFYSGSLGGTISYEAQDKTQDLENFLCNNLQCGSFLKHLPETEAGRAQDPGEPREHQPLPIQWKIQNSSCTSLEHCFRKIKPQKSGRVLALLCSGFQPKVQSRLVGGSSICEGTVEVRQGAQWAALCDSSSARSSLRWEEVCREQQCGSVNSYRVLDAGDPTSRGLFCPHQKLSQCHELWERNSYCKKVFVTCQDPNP

B1: CD33 CAR CAR33-2, construct S012 (other)
chain: QVQLVQSGAEVKKPGSSVKVSCKASGYTFTDYNMHWVRQAPGQGLEWIGYIYPYNGGTGYNQKFKSKATITADESTNTAYMELSSLRSEDTAVYYCARGRPAMDYWGQGTLVTVSSGGGGSGGGGSGGGGSDIQMTQSPSSLSASVGDRVTITCRASESVDNYGISFMNWFQQKPGKAPKLLIYAASNQGSGVPSRFSGSGSGTDFTLTISSLQPDDFATYYCQQSKEVPWTFGQGTKVEIKASTTTPAPRPPTPAPTIASQPLSLRPEACRPAAGGAVHTRGLDFACDIYIWAPLAGTCGVLLLSLVITLYCKRGRKKLLYIFKQPFMRPVQTTQEEDGCSCRFPEEEEGGCELRVKFSRSADAPAYKQGQNQLYNELNLGRREEYDVLDKRRGRDPEMGGKPRRKNPQEGLYNELQKDKMAEAYSEIGMKGERRRGKGHDGLYQGLSTATKDTYDALHMQALPPR
notes: Chimeric antigen receptor on T cells
B2: CD33 CAR CAR33-4, construct S014 (other)
chain: QVQLQQPGAEVVKPGASVKMSCKASGYTFTSYYIHWIKQTPGQGLEWVGVIYPGNDDISYNQKFQGKATLTADKSSTTAYMQLSSLTSEDSAVYYCAREVRLRYFDVWGQGTTVTVSSGGGGSGGGGSGGGGSEIVLTQSPGSLAVSPGERVTMSCKSSQSVFFSSSQKNYLAWYQQIPGQSPRLLIYWASTRESGVPDRFTGSGSGTDFTLTISSVQPEDLAIYYCHQYLSSRTFGQGTKLEIKRASTTTPAPRPPTPAPTIASQPLSLRPEACRPAAGGAVHTRGLDFACDIYIWAPLAGTCGVLLLSLVITLYCKRGRKKLLYIFKQPFMRPVQTTQEEDGCSCRFPEEEEGGCELRVKFSRSADAPAYKQGQNQLYNELNLGRREEYDVLDKRRGRDPEMGGKPRRKNPQEGLYNELQKDKMAEAYSEIGMKGERRRGKGHDGLYQGLSTATKDTYDALHMQALPPR
notes: as for B1
B3: CD33 CAR CAR33-6, construct S016 (other)
chain: B2 chain with Q65K, Q110A, E134N, V136M, G142S, P148A, R151K, R184K, P219S, Q238G
notes: as for B1
B4: CD5/CD33 Dual-CAR, construct S048 (other)
chain: DIQMTQSPSSLSASVGDRVTITCRASESVDNYGISFMNWFQQKPGKAPKLLIYAASNQGSGVPSRFSGSGSGTDFTLTISSLQPDDFATYYCQQSKEVPWTFGQGTKVEIKGGGGSGGGGSGGGGSQVQLVQSGAEVKKPGSSVKVSCKASGYTFTDYNMHWVRQAPGQGLEWIGYIYPYNGGTGYNQKFKSKATITADESTNTAYMELSSLRSEDTAVYYCARGRPAMDYWGQGTLVTVSSASTTTPAPRPPTPAPTIASQPLSLRPEACRPAAGGAVHTRGLDFACDIYIWAPLAGTCGVLLLSLVITLYCKRGRKKLLYIFKQPFMRPVQTTQEEDGCSCRFPEEEEGGCELRVKFSRSADAPAYKQGQNQLYNELNLGRREEYDVLDKRRGRDPEMGGKPRRKNPQEGLYNELQKDKMAEAYSEIGMKGERRRGKGHDGLYQGLSTATKDTYDALHMQALPPRGSGATNFSLLKQAGDVEENPGPMALPVTALLLPLALLLHAARPDIKMTQSPSSMYASLGERVTITCKASQDINSYLSWFHHKPGKSPKTLIYRANRLVDGVPSRFSGSGSGQDYSLTISSLDYEDMGIYYCQQYDESPWTFGGGTKLEMKGGGGSGGGGSGGGGSNIQLVQSGPELKKPGETVKISCKASGYTFTNYGMNWVKQAPGKGLRWMGWINTHTGEPTYADDFKGRFAFSLETSASTAYLQINNLKNEDTATYFCTRRGYDWYFDVWGAGTTVTVSSSGTTTPAPRPPTPAPTIASQPLSLRPEACRPAAGGAVHTRGLDFACDIYIWAPLAGTCGVLLLSLVITLYCKRGRKKLLYIFKQPFMRPVQTTQEEDGCSCRFPEEEEGGCELRVKFSRSADAPAYKQGQNQLYNELNLGRREEYDVLDKRRGRDPEMGGKPRRKNPQEGLYNELQKDKMAEAYSEIGMKGERRRGKGHDGLYQGLSTATKDTYDALHMQALPPRFE
B5: CD5/CD33 Dual-CAR, construct S049 (other)
chain: DIQMTQSPSSLSASVGDRVTITCRASESVDNYGISFMNWFQQKPGKAPKLLIYAASNQGSGVPSRFSGSGSGTDFTLTISSLQPDDFATYYCQQSKEVPWTFGQGTKVEIKGGGGSGGGGSGGGGSQVQLVQSGAEVKKPGSSVKVSCKASGYTFTDYNMHWVRQAPGQGLEWIGYIYPYNGGTGYNQKFKSKATITADESTNTAYMELSSLRSEDTAVYYCARGRPAMDYWGQGTLVTVSSASTTTPAPRPPTPAPTIASQPLSLRPEACRPAAGGAVHTRGLDFACDIYIWAPLAGTCGVLLLSLVITLYCKRGRKKLLYIFKQPFMRPVQTTQEEDGCSCRFPEEEEGGCELRVKFSRSADAPAYKQGQNQLYNELNLGRREEYDVLDKRRGRDPEMGGKPRRKNPQEGLYNELQKDKMAEAYSEIGMKGERRRGKGHDGLYQGLSTATKDTYDALHMQALPPRGSGATNFSLLKQAGDVEENPGPMALPVTALLLPLALLLHAARPDIQMTQSPSSLSASVGDRVTITCRASQDINSYLSWFQQKPGKAPKTLIYRANRLESGVPSRFSGSGSGTDYTLTISSLQYEDFGIYYCQQYDESPWTFGGGTKLEIKGGGGSGGGGSGGGGSEIQLVQSGGGLVKPGGSVRISCAASGYTFTNYGMNWVRQAPGKGLEWMGWINTHTGEPTYADSFKGRFTFSLDDSKNTAYLQINSLRAEDTAVYFCTRRGYDWYFDVWGQGTTVTVSSSGTTTPAPRPPTPAPTIASQPLSLRPEACRPAAGGAVHTRGLDFACDIYIWAPLAGTCGVLLLSLVITLYCKRGRKKLLYIFKQPFMRPVQTTQEEDGCSCRFPEEEEGGCELRVKFSRSADAPAYKQGQNQLYNELNLGRREEYDVLDKRRGRDPEMGGKPRRKNPQEGLYNELQKDKMAEAYSEIGMKGERRRGKGHDGLYQGLSTATKDTYDALHMQALPPRFE
B6: CD5/CD33 Dual-CAR, construct S043 (other)
chain: QVQLVQSGAEVKKPGSSVKVSCKASGYTFTDYNMHWVRQAPGQGLEWIGYIYPYNGGTGYNQKFKSKATITADESTNTAYMELSSLRSEDTAVYYCARGRPAMDYWGQGTLVTVSSGGGGSDIQMTQSPSSLSASVGDRVTITCRASQDINSYLSWFQQKPGKAPKTLIYRANRLESGVPSRFSGSGSGTDYTLTISSLQYEDFGIYYCQQYDESPWTFGGGTKLEIKGSTSGSGKPGSGEGSTKGEIQLVQSGGGLVKPGGSVRISCAASGYTFTNYGMNWVRQAPGKGLEWMGWINTHTGEPTYADSFKGRFTFSLDDSKNTAYLQINSLRAEDTAVYFCTRRGYDWYFDVWGQGTTVTVSSGGGGSDIQMTQSPSSLSASVGDRVTITCRASESVDNYGISFMNWFQQKPGKAPKLLIYAASNQGSGVPSRFSGSGSGTDFTLTISSLQPDDFATYYCQQSKEVPWTFGQGTKVEIKASTTTPAPRPPTPAPTIASQPLSLRPEACRPAAGGAVHTRGLDFACDIYIWAPLAGTCGVLLLSLVITLYCKRGRKKLLYIFKQPFMRPVQTTQEEDGCSCRFPEEEEGGCELRVKFSRSADAPAYKQGQNQLYNELNLGRREEYDVLDKRRGRDPEMGGKPRRKNPQEGLYNELQKDKMAEAYSEIGMKGERRRGKGHDGLYQGLSTATKDTYDALHMQALPPR
B7: CD33 CAR CAR33-1, construct S011 (other)
chain: DIQMTQSPSSLSASVGDRVTITCRASESVDNYGISFMNWFQQKPGKAPKLLIYAASNQGSGVPSRFSGSGSGTDFTLTISSLQPDDFATYYCQQSKEVPWTFGQGTKVEIKGGGGSGGGGSGGGGSQVQLVQSGAEVKKPGSSVKVSCKASGYTFTDYNMHWVRQAPGQGLEWIGYIYPYNGGTGYNQKFKSKATITADESTNTAYMELSSLRSEDTAVYYCARGRPAMDYWGQGTLVTVSSASTTTPAPRPPTPAPTIASQPLSLRPEACRPAAGGAVHTRGLDFACDIYIWAPLAGTCGVLLLSLVITLYCKRGRKKLLYIFKQPFMRPVQTTQEEDGCSCRFPEEEEGGCELRVKFSRSADAPAYKQGQNQLYNELNLGRREEYDVLDKRRGRDPEMGGKPRRKNPQEGLYNELQKDKMAEAYSEIGMKGERRRGKGHDGLYQGLSTATKDTYDALHMQALPPR
notes: as for B1
B8: CD5 CAR CAR5-2, construct S006 (other)
chain: NIQLVQSGPELKKPGETVKISCKASGYTFTNYGMNWVKQAPGKGLRWMGWINTHTGEPTYADDFKGRFAFSLETSASTAYLQINNLKNEDTATYFCTRRGYDWYFDVWGAGTTVTVSSGGGGSGGGGSGGGGSDIKMTQSPSSMYASLGERVTITCKASQDINSYLSWFHHKPGKSPKTLIYRANRLVDGVPSRFSGSGSGQDYSLTISSLDYEDMGIYYCQQYDESPWTFGGGTKLEMKASTTTPAPRPPTPAPTIASQPLSLRPEACRPAAGGAVHTRGLDFACDIYIWAPLAGTCGVLLLSLVITLYCKRGRKKLLYIFKQPFMRPVQTTQEEDGCSCRFPEEEEGGCELRVKFSRSADAPAYKQGQNQLYNELNLGRREEYDVLDKRRGRDPEMGGKPRRKNPQEGLYNELQKDKMAEAYSEIGMKGERRRGKGHDGLYQGLSTATKDTYDALHMQALPPR
notes: as for B1

How the values were obtained:
[1] = target: T3, CD33 human protein-PE (Sino Biological, 12238-HCCH_P) (human, UniProt P20138 18-259, PE label); experiment: flow cytometry; CAR-T cells stained with CD33 human protein-PE
T3 construct: Bought staining reagent; also called CD33 antigen
Method: (§1) CD3 and CD5 are stained with a CD3-FITC antibody (BD Biosciences, #555339) and a CD5-APC antibody (BD Biosciences, #555355) for 30 minutes at R.T. in the dark. CAR5 surface expression is detected by staining with Human CD5 Protein, HisTag (AcroBiosystems, Cat #CD5-H52H5) for 1 hour at R.T., washed and then incubated with His-APC antibody (R&D Systems, IC050A) for 30 minutes at R.T. in the dark. CAR33 expression is stained with CD33 human protein-PE (Sino Biological, 12238-HCCH_P) for 1 hour at R.T. All the staining is performed at 1:10 dilutions. DAPI (Thermo Scientific, Cat #BV-421, 1:5000) is used to stain dead cells before running by the Attune NxT Flow Cytometer (Thermo Fisher Scientific). Data is further analyzed by either using Attune NxT flow software or FlowJo software.

[2] = target: T1, CD5 on human T cells (autologous and …); experiment: cell-based or functional assay
[3] = target: T2, Human CD5 Protein, HisTag …; experiment: flow cytometry; CAR-T cells stained with soluble human CD5-His and His-APC antibody
Method: as §1

T3 sequence (P20138 18-259 limits assumed): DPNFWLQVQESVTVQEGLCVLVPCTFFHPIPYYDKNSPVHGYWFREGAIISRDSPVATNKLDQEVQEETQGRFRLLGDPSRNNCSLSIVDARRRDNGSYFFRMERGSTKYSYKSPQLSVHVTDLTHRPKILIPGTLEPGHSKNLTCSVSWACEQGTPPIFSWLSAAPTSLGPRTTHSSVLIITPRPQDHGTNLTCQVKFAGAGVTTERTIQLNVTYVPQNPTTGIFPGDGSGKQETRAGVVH

Row | Binder | binding result [1] | elimination of CCRF-CEM cells after 18 hours (luciferase-based killing assay) [2] [%] | further results
1 | B1 | binds | – | –
2 | B2 | binds | – | –
3 | B3 | binds | – | –
4 | B4 | – | ~100 | –
5 | B5 | – | ~100 | –
6 | B6 | – | ~100 | –
7 | B7 | binds | – | –
8 | B8 | – | – | % of T cells stained with CD5 antigen (CAR5 expression) [3]: > 80%

Source: US20240000838A1 (SIMCERE INNOVATION, published 2024)
